One assay concerns the target T1, Human CLEC12A-His (human, UniProt Q5QGZ9 65-265).
T1 construct: Recombinant soluble protein made in house (Dragonfly Tx); The hCLEC12A spot of the HuProt array is written under this molecule as well; also called hCLEC12A-His; hCLEC12A; not shown: His tag
T1 sequence: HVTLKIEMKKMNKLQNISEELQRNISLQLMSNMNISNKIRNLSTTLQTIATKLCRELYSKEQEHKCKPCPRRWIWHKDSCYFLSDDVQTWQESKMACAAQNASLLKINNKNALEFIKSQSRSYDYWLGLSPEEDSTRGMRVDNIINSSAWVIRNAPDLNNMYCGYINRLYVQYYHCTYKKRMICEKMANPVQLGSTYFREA
The assay can be described thus: SPR Biacore 8K 37 C; TriNKET captured on anti-hFc chip, hCLEC12A-His as analyte; 1:1 fit; control sample, n=2.

The target of another assay is T2, mFc-hNKG2D (human, UniProt P26718 73-216).
T2 construct: extracellular domain; Made in house (Dragonfly Tx); the order of tag and ECD follows the name mFc-hNKG2D; also called mFc-tagged human NKG2D; not shown: mouse Fc tag
T2 sequence (looked up): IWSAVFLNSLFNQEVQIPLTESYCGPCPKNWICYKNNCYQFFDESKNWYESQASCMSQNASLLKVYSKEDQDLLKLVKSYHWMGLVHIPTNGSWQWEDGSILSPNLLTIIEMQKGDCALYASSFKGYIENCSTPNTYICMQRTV
The assay can be described thus: SPR Biacore 8K 37 C; mFc-hNKG2D captured on anti-mFc chip, TriNKET as analyte; steady state fit; after 4 wks 40 C in HST pH 6.0. For orientation: Surface plasmon resonance follows binding to a sensor surface in real time, without labels.

For assay [1], the target named is T3, Human CLEC12A expressed on cells (Ba/F3-hCLEC12A, PL21, HL60) (human, UniProt Q5QGZ9 1-265).
T3 sequence: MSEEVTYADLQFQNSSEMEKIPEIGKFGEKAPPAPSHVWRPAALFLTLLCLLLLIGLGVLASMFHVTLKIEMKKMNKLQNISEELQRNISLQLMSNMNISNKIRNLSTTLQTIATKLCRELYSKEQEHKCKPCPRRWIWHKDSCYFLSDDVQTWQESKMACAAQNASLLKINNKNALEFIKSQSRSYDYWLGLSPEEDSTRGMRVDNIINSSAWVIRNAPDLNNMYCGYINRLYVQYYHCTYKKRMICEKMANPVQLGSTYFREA
The assay can be described thus: cell-based or functional assay.

Assay [2] concerns the target T3, Human CLEC12A expressed on cells …. The assay can be described thus: flow cytometry on PL21 AML cells. For orientation: Flow cytometry measures light scatter and fluorescence of single cells or particles in a stream.
Assay [3] addresses T4, mFc-hNKG2D (recombinant mFc-tagged human NKG2D dimer) (human, UniProt P26718 73-216).
T4 construct: extracellular domain; Made in house; not shown: mouse Fc tag
T4 sequence (looked up): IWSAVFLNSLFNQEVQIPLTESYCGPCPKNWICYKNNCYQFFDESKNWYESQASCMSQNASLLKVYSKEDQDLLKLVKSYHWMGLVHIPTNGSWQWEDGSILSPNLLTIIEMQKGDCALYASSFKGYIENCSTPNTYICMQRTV
Nature of the assay: SPR 37C, 1:1 kinetic fit, average.

The next assay addresses T5, Human FcRn (human, UniProt P55899 24-297; P61769 21-119).
T5 construct: Bought recombinant receptor; also called hFcRn
The assay can be described thus: SPR 25C, pH 6.0, FcRn on chip, steady state fit.

The next assay deals with T6, Cynomolgus CD64 (cynomolgus monkey, UniProt A0A2K5U901 33-309, Probably biotinylated for capture, as in the sister examples (p-1094).).
T6 construct: Bought recombinant receptor; also called cFcγRI; Cynomolgus CD64 (FcγRI); not shown: The vendor's biotinylation and purification tag
T6 sequence (A0A2K5U901 entry or part of it limits assumed): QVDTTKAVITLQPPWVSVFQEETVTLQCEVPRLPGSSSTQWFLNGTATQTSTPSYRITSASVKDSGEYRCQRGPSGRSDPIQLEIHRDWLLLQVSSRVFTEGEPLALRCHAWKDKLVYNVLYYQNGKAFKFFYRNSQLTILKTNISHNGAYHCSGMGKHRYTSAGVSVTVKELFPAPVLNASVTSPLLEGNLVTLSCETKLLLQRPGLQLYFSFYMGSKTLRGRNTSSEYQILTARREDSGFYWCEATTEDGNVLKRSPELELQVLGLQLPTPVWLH
The assay can be described thus: SPR, cynomolgus CD64 captured.

The target of another assay is T7, Human CD16a F158 (human, UniProt P08637 17-208, biotinylated).
T7 construct: Bought recombinant receptor; also called hFcγRIIIa F158
T7 sequence (P08637 17-208 limits assumed): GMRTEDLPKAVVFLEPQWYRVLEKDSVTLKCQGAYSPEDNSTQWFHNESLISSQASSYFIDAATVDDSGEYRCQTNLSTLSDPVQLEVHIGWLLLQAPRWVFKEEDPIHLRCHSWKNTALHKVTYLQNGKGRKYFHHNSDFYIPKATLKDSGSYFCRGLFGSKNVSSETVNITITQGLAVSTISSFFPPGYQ
Nature of the assay: SPR, steady state fit; average for AB0192.

For the next assay, the target named is T8, Cynomolgus CD16 (cynomolgus monkey, UniProt Q8SPW2 17-208, biotinylated).
T8 construct: Bought recombinant receptor; also called cFcγRIII; Cynomolgus FcγRIII
T8 sequence (Q8SPW2 17-208 limits assumed): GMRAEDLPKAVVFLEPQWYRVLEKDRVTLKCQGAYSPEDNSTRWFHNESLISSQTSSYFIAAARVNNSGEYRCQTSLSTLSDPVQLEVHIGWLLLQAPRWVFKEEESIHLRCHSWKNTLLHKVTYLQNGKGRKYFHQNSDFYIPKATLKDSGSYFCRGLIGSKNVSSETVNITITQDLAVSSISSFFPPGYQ
The assay can be described thus: SPR, steady state fit; average for AB0192.

The values below come from patent US20220119534A1 (DRAGONFLY THERAPEUTICS, published 2022).

Where “and” joins values, the source holds several entries; their conditions need not be identical. Identical values can stand only once.

T5 sequence (P55899 24-297 limits assumed, chain 1 of 2): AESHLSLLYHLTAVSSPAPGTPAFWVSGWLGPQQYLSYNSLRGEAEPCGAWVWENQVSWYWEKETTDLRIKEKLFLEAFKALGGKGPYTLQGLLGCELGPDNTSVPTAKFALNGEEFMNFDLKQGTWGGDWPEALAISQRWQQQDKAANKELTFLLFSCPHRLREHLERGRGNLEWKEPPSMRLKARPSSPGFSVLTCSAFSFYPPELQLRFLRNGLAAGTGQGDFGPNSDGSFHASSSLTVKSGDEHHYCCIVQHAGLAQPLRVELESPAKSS
T5 sequence (P61769 21-119 limits assumed, chain 2 of 2): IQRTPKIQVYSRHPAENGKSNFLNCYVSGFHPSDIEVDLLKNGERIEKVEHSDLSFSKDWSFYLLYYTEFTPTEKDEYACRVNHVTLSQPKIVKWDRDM

B1: F3'-1602 TriNKET (bispecific antibody, human IgG1, kappa)
chain: QLQLQESGPGLVKPSETLSLTCTVSGFSLTNYGLHWIRQPPGKCLEWIGVIWSGGKTDYNPSLKSRVTISKDTSKNQFSLKLSSVQAADTAVYYCAKYDYDDSLDYWGQGTLVTVSSGGGGSGGGGSGGGGSGGGGSDIQMTQSPSSLSASVGDRVTITCHASQNINFWLSWYQQKPGKAPKLLIYEASNLHTGVPSRFSGSGSGTRFTLTISSLQPEDIATYYCQQSHSYPLTFGCGTKLEIKGSDKTHTCPPCPAPELLGGPSVFLFPPKPKDTLMISRTPEVTCVVVDVSHEDPEVKFNWYVDGVEVHNAKTKPREEQYNSTYRVVSVLTVLHQDWLNGKEYKCKVSNKALPAPIEKTISKAKGQPREPRVYTLPPCRDELTKNQVSLTCLVKGFYPSDIAVEWESNGQPENNYKTTPPVLVSDGSFTLYSKLTVDKSRWQQGNVFSCSVMHEALHNHYTQKSLSLSPG
heavy: EVQLVESGGGLVKPGGSLRLSCAASGFTFSSYSMNWVRQAPGKGLEWVSSISSSSSYIYYADSVKGRFTISRDNAKNSLYLQMNSLRAEDTAVYYCARGAPIGAAAGWFDPWGQGTLVTVSSASTKGPSVFPLAPSSKSTSGGTAALGCLVKDYFPEPVTVSWNSGALTSGVHTFPAVLQSSGLYSLSSVVTVPSSSLGTQTYICNVNHKPSNTKVDKKVEPKSCDKTHTCPPCPAPELLGGPSVFLFPPKPKDTLMISRTPEVTCVVVDVSHEDPEVKFNWYVDGVEVHNAKTKPREEQYNSTYRVVSVLTVLHQDWLNGKEYKCKVSNKALPAPIEKTISKAKGQPREPQVCTLPPSRDELTENQVSLTCLVKGFYPSDIAVEWESNGQPENNYKTTPPVLDSDGSFFLYSWLTVDKSRWQQGNVFSCSVMHEALHNHYTQKSLSLSPG
light: DIQMTQSPSSVSASVGDRVTITCRASQGISSWLAWYQQKPGKAPKLLIYAASSLQSGVPSRFSGSGSGTDFTLTISSLQPEDFATYYCQQGVSFPRTFGGGTKVEIKRTVAAPSVFIFPPSDEQLKSGTASVVCLLNNFYPREAKVQWKVDNALQSGNSQESVTEQDSKDSTYSLSSTLTLSKADYEKHKVYACEVTHQGLSSPVTKSFNRGEC
notes: Trispecific F3' format: CLEC12A scFv-Fc paired with NKG2D Fab-Fc; Stressed and control samples of the stability studies are the same molecule; also called AB0237
For the molecule B1, in the assay with Human CLEC12A-His, the Kd (commonly the free concentration of one partner at which half of the binding sites on the other are occupied at equilibrium, for simple one-to-one binding) was 0.98 nM; the koff (as a rule, a measure of how fast the partners let go of each other) is 0.000735 s⁻¹; the kon (commonly a measure of how fast the partners come together) was determined as 750000 M⁻¹ s⁻¹. In the assay with mFc-hNKG2D, this molecule gave a Kd of 776 nM.

B2: AB0089 TriNKET (bispecific antibody, human IgG1, kappa)
chain: QLQLQESGPGLVKPSETLSLTCTVSGFSLTNYGLHWIRQPPGKCLEWIGVIWVGGATDYNPSLKSRVTISVDTSKNQFSLKLSSVQAADTAVYYCAKGDYGDTLDYWGQGTLVTVSSGGGGSGGGGSGGGGSGGGGSDIQMTQSPSSLSASVGDRVTITCHASQNINFWLSWYQQKPGKAPKLLIYEASNLHTGVPSRFSGSGSGTDFTLTISSLQPEDFATYYCQQSHSYPLTFGCGTKLEIKGSDKTHTCPPCPAPELLGGPSVFLFPPKPKDTLMISRTPEVTCVVVDVSHEDPEVKFNWYVDGVEVHNAKTKPREEQYNSTYRVVSVLTVLHQDWLNGKEYKCKVSNKALPAPIEKTISKAKGQPREPRVYTLPPCRDELTKNQVSLTCLVKGFYPSDIAVEWESNGQPENNYKTTPPVLVSDGSFTLYSKLTVDKSRWQQGNVFSCSVMHEALHNHYTQKSLSLSPG
heavy: EVQLVESGGGLVKPGGSLRLSCAASGFTFSSYSMNWVRQAPGKGLEWVSSISSSSSYIYYADSVKGRFTISRDNAKNSLYLQMNSLRAEDTAVYYCARGAPIGAAAGWFDPWGQGTLVTVSSASTKGPSVFPLAPSSKSTSGGTAALGCLVKDYFPEPVTVSWNSGALTSGVHTFPAVLQSSGLYSLSSVVTVPSSSLGTQTYICNVNHKPSNTKVDKKVEPKSCDKTHTCPPCPAPELLGGPSVFLFPPKPKDTLMISRTPEVTCVVVDVSHEDPEVKFNWYVDGVEVHNAKTKPREEQYNSTYRVVSVLTVLHQDWLNGKEYKCKVSNKALPAPIEKTISKAKGQPREPQVCTLPPSRDELTENQVSLTCLVKGFYPSDIAVEWESNGQPENNYKTTPPVLDSDGSFFLYSWLTVDKSRWQQGNVFSCSVMHEALHNHYTQKSLSLSPG
light: DIQMTQSPSSVSASVGDRVTITCRASQGISSWLAWYQQKPGKAPKLLIYAASSLQSGVPSRFSGSGSGTDFTLTISSLQPEDFATYYCQQGVSFPRTFGGGTKVEIKRTVAAPSVFIFPPSDEQLKSGTASVVCLLNNFYPREAKVQWKVDNALQSGNSQESVTEQDSKDSTYSLSSTLTLSKADYEKHKVYACEVTHQGLSSPVTKSFNRGEC
notes: F3' format heterodimer of three chains; human IgG1 Fc with EW-RVT and Y349C/S354C mutations; also called AB0089 Lot AB0089-002; CLEC12A TriNKET AB0089
As to B2, the “EC50, NK cell induction of IFNγ and CD107a in co-culture with PL21 cells (mean of three donors)” value in assay [1] was found to be 0.08 nM. The EC50 (commonly the concentration giving half of the maximal effect) in assay [2] worked out at 0.45 nM. In [3], the Kd came out at 881 nM, the koff was found to be 0.143 s⁻¹ and the kon was determined as 162000 M⁻¹ s⁻¹. In the assay with Human FcRn, this molecule registered an equilibrium dissociation constant (Kd) of 1100 nM.

B3: AB0192 TriNKET (other)
chain: EVQLVESGGGVVQPGGSLRLSCAASGFTFNAFGMHWVRQAPGKCLEWVAFISSGSTSIYYANTVKGRFTISRDNSKNTLYLQMNSLRAEDTAVYYCARDGYPTGGAMDYWGQGTSVTVSSGGGGSGGGGSGGGGSGGGGSDIQMTQSPSSLSASVGDRVTITCKASQDIYNYLSWFQQKPGKAPKPLIYRANILVSGVPSRFSGSGSGQDYTFTISSLQPEDIATYYCLQFDAFPFTFGCGTKLEIKGSDKTHTCPPCPAPELLGGPSVFLFPPKPKDTLMISRTPEVTCVVVDVSHEDPEVKFNWYVDGVEVHNAKTKPREEQYNSTYRVVSVLTVLHQDWLNGKEYKCKVSNKALPAPIEKTISKAKGQPREPRVYTLPPCRDELTKNQVSLTCLVKGFYPSDIAVEWESNGQPENNYKTTPPVLVSDGSFTLYSKLTVDKSRWQQGNVFSCSVMHEALHNHYTQKSLSLSPG
heavy: EVQLVESGGGLVKPGGSLRLSCAASGFTFSSYSMNWVRQAPGKGLEWVSSISSSSSYIYYADSVKGRFTISRDNAKNSLYLQMNSLRAEDTAVYYCARGAPIGAAAGWFDPWGQGTLVTVSSASTKGPSVFPLAPSSKSTSGGTAALGCLVKDYFPEPVTVSWNSGALTSGVHTFPAVLQSSGLYSLSSVVTVPSSSLGTQTYICNVNHKPSNTKVDKKVEPKSCDKTHTCPPCPAPELLGGPSVFLFPPKPKDTLMISRTPEVTCVVVDVSHEDPEVKFNWYVDGVEVHNAKTKPREEQYNSTYRVVSVLTVLHQDWLNGKEYKCKVSNKALPAPIEKTISKAKGQPREPQVCTLPPSRDELTENQVSLTCLVKGFYPSDIAVEWESNGQPENNYKTTPPVLDSDGSFFLYSWLTVDKSRWQQGNVFSCSVMHEALHNHYTQKSLSLSPG
light: DIQMTQSPSSVSASVGDRVTITCRASQGISSWLAWYQQKPGKAPKLLIYAASSLQSGVPSRFSGSGSGTDFTLTISSLQPEDFATYYCQQGVSFPRTFGGGTKVEIKRTVAAPSVFIFPPSDEQLKSGTASVVCLLNNFYPREAKVQWKVDNALQSGNSQESVTEQDSKDSTYSLSSTLTLSKADYEKHKVYACEVTHQGLSSPVTKSFNRGEC
notes: the condition stands under assay; also called AB0192 Lot AB0192-005
Consider B3, for which the Kd is 2.2 nM and 1.5 nM and 1.9 nM and 2.1 nM with Cynomolgus CD64; 680 nM with Human CD16a F158; 204 nM in the assay with Cynomolgus CD16. Besides, the koff with Cynomolgus CD64 was 0.00012 s⁻¹ and 0.00011 s⁻¹. Also, in the assay with Cynomolgus CD64, the kon is 54000 M⁻¹ s⁻¹ and 80000 M⁻¹ s⁻¹ and 57000 M⁻¹ s⁻¹ and 55000 M⁻¹ s⁻¹.
